The results in this text go back to US20240109962A1 (SPARX BIOSCIENCE, published 2024).

Experiment [1] has as its target T1, human LILRB3 expressed on 293T cells (human, UniProt O75022 24-631).
T1 construct: whole, on cells
In words: cell ELISA on fixed 293T transfectants, OD490. The procedure: The cells were then immobilized with glutaraldehyde in the presence of 5% defatted milk at room temperature for 2 hours. An anti-LILRB2 antibody (2 μg/ml) was added to each well and incubated at room temperature for 2 hours. An HRP-labelled goat anti-mouse secondary antibody was then added into each well and incubated at room temperature for one hour. An HRP substrate, o-phenylenediamine dihydrochloride (OPD) was then added to each well. The plate was incubated at room temperature for 15 min to allow color development and OD₄₉₀ values were determined.
(In general: In an ELISA, binding on a coated surface is turned into a signal by an enzyme label.)

Experiment [2] deals with LILRB2 antigen of the ELISA of Table 5 (format not specified) (UniProt Q8N423 22-460, limits assumed). In words: ELISA, antibody titration.
The target of the next experiment is T2, LILRB3-His.
T2 construct: also called His-tagged LILRB3; recombinant LILRB3 protein
The experiment in a line: ELISA on recombinant His-tagged protein, OD450.

The target of experiment [3] is T3, human LILRB2 expressed on cells (293T-LILRB2, CHO-K1-LILRB2) (human, UniProt Q8N423 22-597).
T3 construct: whole, on cells; the cell line is named under assay; also called HEK293T-LILRB2
In words: flow cytometry on 293T-LILRB2 cells, serial dilution, APC anti-human IgG; fit table under the graph. The source says: (§1) The cells were washed and then subject to flow cytometry to measure levels of fluorescent signals.
On the technique in general: In flow cytometry, cells or beads pass a laser one at a time.

In experiment [4] the target is T3, human LILRB2 expressed on cells …. In words: flow cytometry, blockade of His-tagged HLA-G tetramer binding to 293T-LILRB2 cells; fit table under the graph. The procedure:
Serial diluted humanized LILRB2 antibodies were then added to the mixture and incubated at room temperature for another 45 minutes. The binding of HLA-G/LILRB2 was detected afterwards using a secondary PE-labeled anti-His tag antibody via flow cytometry.

Experiment [5] has the same target. In words: flow cytometry on 293T-LILRB2 cells, serial dilution, APC anti-human IgG; fit table under the graph.
Source text: as §1
The source holds these as a separate data set.

Experiment [6] addresses T4, human LILRB1 expressed on 293T cells (human, UniProt Q8NHL6 24-650).
T4 construct: whole, on cells
The experiment in a line: flow cytometry on 293T transfectants, MFI. How it is done:
(§2) The cells were then immobilized with glutaraldehyde in the presence of 5% defatted milk at room temperature for 2 hours. An anti-LILRB2 antibody (5 μg/ml) was added to each well and incubated at room temperature for 1 hours. An Alex Flour®-labelled goat anti-mouse secondary antibody (1:2,000 dilution) was then added into each well and incubated at room temperature for 30′. The cells were washed twice with PBS after the staining. Fluorescence intensities (MFI) were measured.

Experiment [7] addresses T1, human LILRB3 expressed on 293T cells. In words: flow cytometry on 293T transfectants, MFI. How it is done:
as §2

Experiment [8] concerns the target T5, His-tagged human LILRB2 polypeptide (human, UniProt Q8N423 22-460).
T5 construct: SPR analyte; also called His-tagged human LILBR2 polypeptide; not shown: His tag
In words: SPR, antibody on CM5 chip, His-LILRB2 analyte, 1:1 model. How it is done: Surface plasmon resonance (SPR) was used to examine binding activities of exemplary anti-LILBR2 antibodies disclosed herein. Briefly, the anti-LILBR2 antibody was diluted in a coating buffer to a concentration of 30 μg/ml, loaded onto CM5 chips at 10 μl/min to allow coating of the antibody on the surface of the CM5 chip. […] Binding affinity was measured based on the 1:1 binding model.
(In SPR one partner is held on a chip, and binding of the other changes the refractive index at the surface.)

Numbering of substitutions follows the chain as printed. Like-named read-outs stand apart in the source and are kept apart here.

T3 sequence (Q8N423 22-597): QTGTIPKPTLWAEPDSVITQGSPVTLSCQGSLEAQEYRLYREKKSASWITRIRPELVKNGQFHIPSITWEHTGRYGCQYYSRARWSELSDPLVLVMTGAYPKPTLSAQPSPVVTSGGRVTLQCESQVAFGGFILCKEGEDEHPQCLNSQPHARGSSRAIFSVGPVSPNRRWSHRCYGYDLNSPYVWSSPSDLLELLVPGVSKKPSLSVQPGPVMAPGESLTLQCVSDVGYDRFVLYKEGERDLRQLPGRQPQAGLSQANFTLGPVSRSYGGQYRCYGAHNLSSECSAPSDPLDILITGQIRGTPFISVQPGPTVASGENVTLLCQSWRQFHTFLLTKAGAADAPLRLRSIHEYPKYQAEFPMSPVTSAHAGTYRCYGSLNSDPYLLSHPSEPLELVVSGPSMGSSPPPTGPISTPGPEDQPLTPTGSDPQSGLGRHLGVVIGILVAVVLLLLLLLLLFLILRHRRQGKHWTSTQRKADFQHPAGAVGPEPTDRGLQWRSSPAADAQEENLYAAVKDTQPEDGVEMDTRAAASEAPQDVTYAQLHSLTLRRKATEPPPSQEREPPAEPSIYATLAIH
T5 sequence (Q8N423 22-460 limits assumed): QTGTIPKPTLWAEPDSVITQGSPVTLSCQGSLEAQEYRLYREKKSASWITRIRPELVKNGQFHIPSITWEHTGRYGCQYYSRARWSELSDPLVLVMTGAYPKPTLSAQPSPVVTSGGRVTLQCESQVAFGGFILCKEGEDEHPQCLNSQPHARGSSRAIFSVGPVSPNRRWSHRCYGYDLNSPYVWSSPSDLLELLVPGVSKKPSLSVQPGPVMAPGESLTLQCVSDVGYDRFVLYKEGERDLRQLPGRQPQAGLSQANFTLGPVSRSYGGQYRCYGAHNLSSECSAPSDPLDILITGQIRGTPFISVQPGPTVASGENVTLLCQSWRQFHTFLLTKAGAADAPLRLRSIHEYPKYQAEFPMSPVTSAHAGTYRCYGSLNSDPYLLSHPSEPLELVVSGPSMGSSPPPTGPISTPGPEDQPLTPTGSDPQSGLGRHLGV
LILRB2 antigen of the ELISA of Table 5 (format not specified), sequence (Q8N423 22-460 limits assumed): as above
T4 sequence (Q8NHL6 24-650): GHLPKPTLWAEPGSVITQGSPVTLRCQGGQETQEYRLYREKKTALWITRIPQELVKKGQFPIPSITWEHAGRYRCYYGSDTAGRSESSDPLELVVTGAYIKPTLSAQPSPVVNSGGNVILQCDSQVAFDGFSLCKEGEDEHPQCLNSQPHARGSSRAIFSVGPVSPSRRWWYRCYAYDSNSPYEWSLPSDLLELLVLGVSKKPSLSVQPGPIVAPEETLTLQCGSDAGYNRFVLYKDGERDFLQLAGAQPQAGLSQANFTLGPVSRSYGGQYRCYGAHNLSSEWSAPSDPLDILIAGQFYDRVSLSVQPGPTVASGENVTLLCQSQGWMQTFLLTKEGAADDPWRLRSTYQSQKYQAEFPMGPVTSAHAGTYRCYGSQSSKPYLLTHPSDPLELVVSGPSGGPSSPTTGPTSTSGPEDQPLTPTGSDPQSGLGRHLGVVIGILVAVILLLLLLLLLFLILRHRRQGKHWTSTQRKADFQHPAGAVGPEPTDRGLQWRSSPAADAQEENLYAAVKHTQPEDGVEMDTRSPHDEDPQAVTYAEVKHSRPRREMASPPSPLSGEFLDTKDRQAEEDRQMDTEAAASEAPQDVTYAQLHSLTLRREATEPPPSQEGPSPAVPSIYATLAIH

B1: Antibody 10B11 (antibody, V domains shown)
VH: EIQLQQSGPELVKPGASVKVSCKASGNSFTDNNIYWVKQSHGESLEWIGYIDPFNGRTTYNQKFKGKATLTVDKSSSTAFMHLNSLTSGDSAVYYCARGDYFNYWGQGTTLTVSS
VL: EIQMTQTTSSLSASLGDRVTISCSASQGINNYLNWFQQKSDGTVKLLIYYTSSLHSGVPSRFSGSGSGTDYSLTISNLEPEDIAIYYCQQYSNLPFTFGGGTELEIK
notes: Mouse hybridoma mAb purified from ascites
For the molecule B1, the binding result is on record as “no binding (tested: 2 µg/ml)” in experiment [1] and “no binding” with LILRB3-His. Further, in [2], binding was put at a Kd of 0.195 nM.

B2: Antibody 11D9 (antibody, V domains shown)
VH: EIQLQQSGPELVKPGASVKLSCKASGYAFTTYNMYWVKQSPGKSLEWIGYIDPYNGGATYNLKFKGKATLTVDKSSSAAYMHLNGLTSEDSAVYYCAGGDYFNYWGQGTILTVSS
VL: B1 VL with E1D, S24R, G28V, S40P, S53T, I83F, I85T, N93T, F96Y, E103K
notes: as for B1
As for B2, the binding result in experiment [1] was “no binding (tested: 2 µg/ml)”; with LILRB3-His, “no binding”. For the same molecule, the affinity in experiment [2], expressed as Kd, was 1.43 nM.

B3: Antibody 4A9 (antibody, V domains shown)
VH: EIQLQQSGPELVKPGASVKVSCKASGSSFTDYNMYWVKQIHGKSLDWIGYIDPYNGRTTYNQKFKGKATLTVDKSSSTAFMHLNSLTSEDSAVYYCAGGDYFDYWGHGTSLTVSS
VL: B1 VL with N30S, S40P, S53T, Y71F, E79D, I83F, I85T, F96Y, E103K
notes: as for B1
As to B3, the results for the binding result (in experiment [1]; in the experiment with LILRB3-His) were “no binding (tested: 2 µg/ml)” and “no binding”, respectively. Binding in experiment [2] was characterised by a dissociation constant (Kd) of 0.216 nM.

B4: Antibody h#2C1 (antibody, V domains shown)
VH: EVQLVESGGGLVQPGGSLRLSCAVSGYSITSGYYWNWVRQAPGKGLEWVAYISYDGNNNYNPSLKNRFTISRDTSKNTFYLQMNSLRAEDTAVYYCAREESTMITTAWFAYWGQGTLVTVSS
VL: DIQMTQSPSSLSASVGDRVTITCRASENIYSNLAWYQQKPGKAPKLLIYGATNLASGVPSRFSGSGSGTDYTLTISSLQPEDFATYYCQHFWDTPYTFGQGTKVEIK
notes: Humanized variant of 11B12
In experiment [3], B4 showed a Bmax of 684000 RFU and a Kd of 0.394 nM. In experiment [4], this molecule yielded an IC50 of 0.56 nM and a Span of 6960 RFU.

B5: h#2G3 (antibody, V domains shown)
VH: B4 VH with V38I, F79V
VL: B4 VL with M4L
notes: also called Antibody h#2G3
In the case of B5, in [3], the Bmax amounted to 683000 RFU and the Kd amounted to 0.536 nM.

B6: chimeric 11B12 (antibody, V domains shown)
VH: DVQLQESGPGLVKPSQSLSLTCSVTGYSITSGYYWNWIRQFPGNKLEWMGYISYDGNNNYNPSLKNRISITRDTSKNQFFLKLNSVTTEDTATYYCAREESTMITTAWFAYWGQGTLVTVSA
VL: DIQMTQSPASLSVSVGETVTITCRASENIYSNLAWYQQKQGKSPQLLVYGATNLADGVPSRFSGSGSGTQYSLKINSLQSEDFGSYFCQHFWDTPYTFGGGTKLEIK
As for B6, in experiment [5], the Bmax came to 582000 RFU and the dissociation constant Kd came out at 0.171 nM.

B7: Antibody 14C11 (antibody, V domains shown)
VH: EVQLQQSGPDLVKPGASVKISCKASGYIFTDFNMHWVKQSHGKSLEWIGYIYPFNGGTGYNQKFENKATLTVDNSSSTAYMEVRSLTSEDSAVYYCARRGGRGHFDYWGQGTTLTVSS
VL: DIQMTQSPASLSASVGETVTVTCRASGNIHNYLAWYQQKQGKSPQLLVYNAKTLADGVPSRFSGSGSGTQFSLKINSLQPEDFGSYYCQHFWNTPFTFGSGTKLEIK
notes: as for B1
With B7, the values for the binding result (in [6]; in [7]; in the experiment with LILRB3-His) were “no binding (tested: 5 µg/ml)”, “no binding (tested: 5 µg/ml)” and “no binding”, respectively. Further, the Kd in [8] was determined as 0.962 nM; in experiment [2] it was 0.804 nM. In experiment [8], this molecule had a koff of 0.00025 s⁻¹. In addition, the kon in [8] amounted to 260000 M⁻¹ s⁻¹.

As usually defined, the Kd is a measure of binding affinity in units of concentration. What is called IC50 is the concentration that gives 50% inhibition. Usually koff stands for the first-order rate constant of dissociation. The term kon denotes a measure of how fast the partners come together. Low readings indicate slower complex formation, high ones faster complex formation.
